assay: soluble on expression in E. coli; label from the status in PepcDB or PDB records

| Sequence | soluble on expression in E. coli |
| --- | --- |
| MIRLTELKLPLNHEEGALLDAIAAKLKIPAQQVLSFTLFRRGYDARKKSDIQLIYTVDVEVANPEKLLAKFSKDQHVRPTPDMSYKFVAKAPENLPERPLVIGFGPCGLFAGLVLAQMGFNPIIVERGKEVRERTKDTFGFWRKRTLNTESNVQFGEGGAGTFSDGKLYSQVKDPNFYGRKVITEFVEAGAPEEILYVSKPHIGTFKLVTMIEKMRAKIIELGGEIRFSTRVDDIHMQDGQITGVILSNGEEIQSRHVVLAVGHSARDTFEMLHARGVYMEAKPFSVGFRIEHKQSMIDEARFGPSAGHPILGAADYKLVHHCKNGRTVYSFCMCPGGTVVAATSEEGRVVTNGMSQYSRAERNANSAIVVGISPEQDYPGDPLAGIRLQRELETNAYKLGGETYDAPAQKIGDFLKGRNPSELGDVQPSFTPGIKLTDLSKALPAFAVEAIREAIPEFDRQIKGFASEDGLLTGVETRTSSPVCIKRGKDFQSINLKGFYPAGEGAGYAGGILSAGIDGIKVAEAVARDMMARFAGELEHHHHHH | soluble |
| MTLGELREEVWNALARYDLALHPTPPHGHHPNFLGARRAAERLLKTPEFQGARRVLAGMDAVLKPLREEALRQGKELLLPHPDRPGEFLLLRDVDPRKLKRVREAYRFGVRVALEEATPDLVLIGAVAVDEEGGWVGKGYGFPQSWLRVEAPFATLAHPVMVYPRLPVPPERRVDLIATPQRLLRLG | soluble |
| MGSDKIHHHHHHPNDPIIYKKEGGAFLWLGDTAWELFHVLDKEEIVHYLDNRQEKGFTVIQAVILSELDGLDKPNAYGYLPLVDKDPTQITEGYFELVDFVIREAGKRGMYIGLLPTWANNVVEKDGNPALFNPDNAYTYGKILGTRYKNEAVIWILGGDRNVVTDKEFEIWQSMAKGIQEGNGGTQLMSYHPTGEISSHYWFHNESWLSFNILQSGHYRRMDPVYRFSGMYAQLNPIKPFVNAEPSYEDIPVLFWEYFDYAKFGKKKEDIIGDNGLIKDTTYFTDGIYDDYDIRMQAYWTYFSGAAGYTYGNNAIWQMYKPGGKYHVPCLTFWDGALDRPGAECMRYVKSLFTMYPLDRFRPDLSVLFGINYNDASYITPVLAKDKTFILVYLSQGQDVRIQMSKLRSLGKAYWFNPRNGARTLIGPVENKGIRTFNAPGEAGERGNDWILILEADDR | not soluble |
| MKNNPKTRYPLRLEESYAKNIQKAVKEIEKVSLYEFDKYLAPMIDDKNIVNDSNLINDGLFDAASKLIRNAQTYFLGILQNRTAQKIVRKHINSVNAFNKSNVNSQLSARGINPLQTEKWLDSYVQAKIAENISYVTNIRDDYSKKFEQVIYRGITEGKSSNEIREELVHQAGMSSDKAAFIARDQTGTILGQMNSERQKRAGFQAFRWSDSGDERVRDSHRERNGKIYFYADNPLLPGEEYNCRCVAEPVDDEELLEESIDLGLSNQEEHAVKTYVSSEAYKLNDKLRNGYQLDESDLKLIDNLDKALGKMTNYDGEVTRSMFFDSSDDLVRFANNYNLNDVVQFPEYISTTKDIYSEQDSLRFVIMSSTGKDLGSYNKSEKEVLFNRDAKFIVKDRYLLDGKPFIVLEEYHE | not soluble |
| MGSDKIHHHHHHMRKSRDANPFKAMPNILYPDELMDKAYNRSEKIAGELRTTTRGLSTPKSKIIEDNKIRTTASVISDNLLKIVEKTPSIDNLDPFYREILEIMVGSDEFKKSLAAVQWASEIVKKLGTQYSRKVKKAPSPQATSIVRKEFIGRVSSVLKQIYPNMAFLGVARNKLKNIPTVKNLPSVVIAGYPNVGKSTLLRTLTDAEPEVNSYPFTTKGLNIGYTEEGIQIIDTPGVLDRPIYERNDIELHAVVAINYLSDMILFVIDPTEFCGFTMEEQFNLLQEIRKTFNVPILVALTKMDVDEIEGLDKLEEDLGEYEVLKVSSFKKEGIADLRERLLDILDEQGLMGLLEE | not soluble |
| MTTVIVANDLVGFGKVALTSSLLPIMSACQTEVLPLPTVLLSSHTGEFDNIYVRYLTVDMQGFCGQWKRLDFRVDGLVGGYFKSEEELGLVSQCLTKKRFLFLLDPIMGDNGRLYQGFDRDYVEAMKDFCQQADVIIPNLTEAALLTGSPYLEEGSYDMTTIENLLRNLSRLGPRKVILTGISFETEKIGLAYFDKETNQVIYRMRKRYQSHFYGSGDLLTAILSAGYFHNLDFLKVCDLALDFLNKVLLFTLSSGRPLKYGLCYEPLYRLFI | soluble |
| MFPIHYQFSIIHYPLKKEMKLNLKNPIVFFDLETTGTNINTDRIVEICYLKVYPNGNEETKTMRINPEMHIPEASSAVHGIYDADVADCPTFKEVAKNVARDIEGCDLAGFNSNRFDIPVLAEEFLRAGVDIDMTKRKFVDVQVIFHKMEQRTLSAAYKFYCEKSLEDAHTAEADTRATYEVLKAQLDRYPDLQNDIAFLAEYSSFTKNVDFAGRMVYDDNGVEVFNFGKYKGMSVAEVLKKDPGYYSWILNSDFTLNTKAVLTKIRLREMSNLITK | soluble |
| MATFMTEDFLLKNDIARTLYHKYAAPMPIYDFHCHLSPQEIADDRRFDNLGQIWLEGDHYKWRALRSAGVDESLITGKETSDYEKYMAWANTVPKTLGNPLYHWTHLELRRPFGITGTLFGPDTAESIWTQCNEKLATPAFSARGIMQQMNVRMVGTTDDPIDSLEYHRQIAADDSIDIEVAPSWRPDKVFKIELDGFVDYLRKLEAAADVSITRFDDLRQALTRRLDHFAACGCRASDHGIETLRFAPVPDDAQLDAILGKRLAGETLSELEIAQFTTAVLVWLGRQYAARGWVMQLHIGAIRNNNTRMFRLLGPDTGFDSIGDNNISWALSRLLDSMDVTNELPKTILYCLNPRDNEVLATMIGNFQGPGIAGKVQFGSGWWFNDQKDGMLRQLEQLSQMGLLSQFVGMLTDSRSFLSYTRHEYFRRILCNLLGQWAQDGEIPDDEAMLSRMVQDICFNNAQRYFTIK | not soluble |
| MVRVIIKGGVWKNTEDEILKAAIMKYGKNQWSRIASLLHRKSAKQCKARWFEWLDPGIKKTEWSREEDEKLLHLAKLMPTQWRTIAPIVGRTSAQCLERYEHLLDEAQRKAEGLDEEATETRKLKPGEIDPTPETKPARPDPIDMDDDELEMLSEARARLANTQGKKAKRKARERQLSDARRLASLQKRREMRAAGLAFARKFKPKRNQIDYSEEIPFEKHVPAGFHNPSEDRYVVEDANQKAIEDHQKPRGREIEMEMRREDREKLKKRKEQGEADAVFNIKEKKRSKLVLPEPQISDRELEQIVKIGHASDSVRQYIDGTATSGLLTDYTESARANAVAARTMRTPMLKDTVQLELENLMALQNTESALKGGLNTPLHESELGKGVLPTPKVAATPNTVLHAIAATPGTQSQFPGSTPGGFATPAGSVAATPFRDQMRINEEIAGSALEQKASLKRALASLPTPKNDFEVVGPDDDEVEGAVEDESNQDEDGWIEDASERAENKAKRNAENRVRNMKMRSQVIQRSLPKPTKVNEQATRATNSSADDMVKAEMSKLLAWDVDNKPPSVIYSREELDAAADLIKQEAESGPELNSLMWKVVEQCTSEIILSKDKFTRIAILPREEQMKALNDEFQMYRGWMNQRAKRAAKVEKKLRVKLGGYQAIHDKLCKKYQEVTTEIEMANIEKKTFERLGEHELKAINKRVGRLQQEVTTQETREKDLQKMYSKLSNKQWKLSQIEIHDAASTTSAPITY | not soluble |
| SLPVLAPVTKDPATSLYTIPFHDGASLVLDVAGPLVWSTCKGGQPPAEIPCSSPTCLLANAYPAPGCPAPSCGSDKHDKPCTAYPYNPVSGACAAGSLSHTRFVANTTDGSKPVSKVNVGVLAACAPSKLLASLPRGSTGVAGLANSGLALPAQVASAQKVANRFLLCLPTGGPGVAIFGGGPVPWPQFTQSMPYTPLVTKGGSPAHYISARSIVVGDTRVPVPEGALATGGVMLSTRLPYVLLRPDVYRPLMDAFTKALAAQHANGAPVARAVVAVAPFGVCYDTKTLGNNLGGYAVPNVQLGLDGGSDWTMTGKNSMVDVKQGTACVAFVEMKGVAAGDGRAPAVILGGAQMEDFVLDFDMEKKRLGFSRLPHFTGCGGL | soluble |
| MNHTSDTALLIVNLGTPEAPTAAAVRRYLGEFLSDRRVVSIPPLFWKPLLHMVILPIRGPRSASKYAKVWLQEGSPLSVYTRRIAEGLTQHLPDWRVAWAMRYGAPALTKALDALQAQQVRRIVILPLYPQYSTTTTASVQDVVEAWCKRTPQVQVECIQDYAEDPAWVAAVAASIRRHWQAHGRSEKLMFSFHGLPQRVANNGDPYPQRCQV | not soluble |
| MLVLYRASIRFKLRKNKNSFDSSNYFYGGNNICIINTKWGKHSGIGGYAEIIDTLVGNFTNISSWAKIGIRDHIHTNFLICDFVYKDNDHIMPPGISSFEDYWVKIGNDVWVGTNVTILRGVEVGDGAVIAAGSVVTKSIPPYAIVGGNPAKFIKWRFPFEVREKLLEIKWWDWDDDLIKEKKDYLQNLVGFDMDKYKIEYRKRKEDLFYLEHHHHHH | soluble |
| VLSAIGIVPSAPVLVPELAGAAAAELADLGAAVIAAASLLPKSWIAVGTGRADDVVRPTDVGTFAGFGADVRVGLAPQDGDGVAVPVELPLCALLTAWVRGQARPEARAQVHVYASDHGSDAAVARGRQLRADIDREPDPIGVLVVADGLNTLTPRAPGGYDPDGAGMQRALDDALASGDLAVLTRLPAQVLGRVAFQVLAGLAEPGPRSAKEFYRGAPHGVGYFAGVWQP | not soluble |
| MAHHHHHHMSQKNKKVYDTQNEQENTNSSSNSSSNSDKEIQKDKEEYKKGENNFSILNVEEVNIIELSREELYKVCAELQQKELEALKYIYVLDSELNIKYENDEDKLTIVEINLNDQNISNNHINFTFELPKDYPLGSISIINVTVKNFTPDTNNYINEEVYRYLQRYNEQRECILPVIYKVNEIIENIIQYKEEPGEKSLSSSTEGRSDFDQEQTFNEWDNKNKQRKADIVCFPELSYSMNFSKRPNILARRLCYSHHILSLVKRSCIIKWAKQLKIGGYSKIGYPGIIVCEGPKDEVDFYINSLNKLRWKHFDCRGMEDIELDENENLDDARVLPTTVRELDAKSMRTLSDICTQCGLRDLFLTSMKIYNNNDKKGSVKEKNKNGEENKPGNTKDILKEKGKKKKKRSSK | not soluble |
| GHMQEKPPKELVNEWSLKIRKEMRVVDRQIRDIQREEEKVKRSVKDAAKKGQKDVCIVLAKEMIRSRKAVSKLYASKAHMNSVLMGMKNQLAVLRVAGSLQKSTEVMKAMQSLVKIPEIQATMRELSKEMMKAGIIEEMLEDTFESMDDQEEMEEEAEMEIDRILFEITAGALGKAPSKVTDALPEPEPPGAMAASEDEEEEEEALEAMQSRLATLRS | soluble |
| MAHHHHHHMTDVVEAPRPATVAEAFANTAKALEQFNIERIRVEGLSCKSSITHCRKHDKNNMEKEEDVRTLTEQAFMREFVFQSRPCVIVGALEDWPAMQRWRDDRYLFDLDGHLSRVRRETDDAAAPSSEGTAATGDVAVVPKNNDHDSSDDNTHPREREEEKDGLKRVTVALTPNGRADAVTYVTYQGAREEGRENDVDGKKDNVEEHFIKTEKLFMAAAEIRATLPELYHLLRENPLYPPVRPVFVDLRRPAPVVAYAQMQNNCLEVEYQHLHGDIPPELDRFGERVFGEPHEAANVWFGTPASVSSMHQDWVENLYAVVRGVKEFILLPPWEGVFVPKPELPSAAFSVQRQDGVNGYVFSGTPVHDGLTIPWMDVEFTPAALEDVSLMPTNMQERLHPLVVYVQPGEVLYLPAMWLHRVAQHADDTDRLAREKQLTSSLQSAQDPPLPLIAAVNYWYDMSFTNPAVVMLREFGLLL | soluble |
| MAHHHHHHMAANEGNQSCMDALSSITFAQLAGPLQPVYGPSRVPRHQQFVDLVTDSSGMSPFIPFGTQGSANSSTAFPVDNAYLSKRAPPESEGQNRAAYYNNSSASMQTPEKVDKPQMLRQVSVGAPTPSSGMGMTASPATVCRYITHATPGSALLDETCTRTYLRSAPMNFVASTGITTDNAIGAVSNAVLSAAAAALPSVKVSIDDKPTSLAIELEQAYEEHVHESKRRVGDKVKRKEKKVLVTVGFPGVDNVPQMISDGTEEQLLNKEEVEQGKRRRERRQSRGKNKQKGDNNNNNCIFHDGDKFVSNFSSIHADNESHGECGDRKFLVTLRCHGHRDVTAICCLRLSKGKYVIFEADRGVDLGEVINVKELISEPSGNSAPAQVLRCALDEEVEDWKGPLVERENEAVEECRHVCEQLGLTIRVVGAAYQFDRQKLTFMYESDDRVDFRALLQVMFSKFRCRIWMERRGRGHQDNDAHTG | not soluble |

Source: the DeepSol protein solubility set
